Test results as given in patent publication US20130266536A1, “METHOD OF USE OF STABILIZED PLANT-DERIVED GROWTH FACTOR IN SKIN CARE” (priority 2010, published 2013).

Test: Stability challenge test of plant-made EGF in formulation 1
Assay type: physicochemical
Conditions: reconstituted freeze-dried non-glycosylated EGF in formulation 1; +4° C., RT and +37° C.; up to 3 weeks; gel, FIG. 5
From the text: Size markers 11 and 17 kDa in the first lane. […] (Ref.http://www.cellsciences.com/PDF/CRE100.pdf)

plant-made EGF: purified, reconstituted freeze-dried, non-glycosylated, plant-made EGF in a formulation as in Example 5, formulation 1
stability of the growth factor: excellent stability
